According to paper PMC3538678:

Assays:
[1] = molecular target: recombinant human laminin-511 (α5β1γ1) (human) (UniProt O15230)
[2] = molecular target: recombinant human laminin-521 (α5β2γ1) (human) (UniProt O15230)
[3] = molecular target: recombinant human laminin-511 (α5β1γ1) (human) (UniProt O15230); remark: listed apart in the source
[4] = molecular target: recombinant human laminin-521 (α5β2γ1) (human) (UniProt O15230); remark: listed apart in the source

adhesion of BE melanoma cells to wells coated with rhLM511 (20 µg/ml), OD [1]: 1.65 OD
adhesion of KG1C glioma cells to wells coated with rhLM511 (20 µg/ml), OD [1]: 1.48 OD
adhesion of MDA-MB-231 breast carcinoma cells to wells coated with rhLM511 (20 µg/ml), OD [1]: 1.82 OD
adhesion of BE melanoma cells to wells coated with rhLM521 (20 µg/ml), OD [2]: 1.56 OD
adhesion of KG1C glioma cells to wells coated with rhLM521 (20 µg/ml), OD [2]: 1.39 OD
adhesion of MDA-MB-231 breast carcinoma cells to wells coated with rhLM521 (20 µg/ml), OD [2]: 1.85 OD
migration of carcinoma cells through membranes coated with rhLM511, cells/field [3]: 190 cells/field
migration of glioma cells through membranes coated with rhLM511, cells/field [3]: 161 cells/field
migration of melanoma cells through membranes coated with rhLM511, cells/field [3]: 88 cells/field
migration of carcinoma cells through membranes coated with rhLM521, cells/field [4]: 198 cells/field
migration of glioma cells through membranes coated with rhLM521, cells/field [4]: 174 cells/field
migration of melanoma cells through membranes coated with rhLM521, cells/field [4]: 203 cells/field
Substance: recombinant human α3β1 integrin (from UniProt P26006 33-1051; P05556 21-728) (receptor)
